Patent US20170340735A1 (published 2017)
Changes are numbered by the printed parent chain.

T1: human TIGIT on the cell surface (human, UniProt Q495A1 22-244)
T1 sequence: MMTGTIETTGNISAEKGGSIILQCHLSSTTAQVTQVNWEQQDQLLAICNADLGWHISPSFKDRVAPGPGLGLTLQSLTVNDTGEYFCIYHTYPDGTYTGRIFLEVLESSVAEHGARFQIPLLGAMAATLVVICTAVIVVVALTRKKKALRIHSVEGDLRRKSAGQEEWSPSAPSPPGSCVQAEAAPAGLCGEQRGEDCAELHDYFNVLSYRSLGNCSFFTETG

T2: recombinant monomeric human TIGIT-His (human, UniProt Q495A1 22-141)
T2 construct: also called hTIGIT; not shown: His tag
T2 sequence: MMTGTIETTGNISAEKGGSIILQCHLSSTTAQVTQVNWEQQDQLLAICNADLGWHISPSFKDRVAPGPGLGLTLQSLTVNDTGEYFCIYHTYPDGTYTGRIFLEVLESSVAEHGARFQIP

T3: human PVRL4-His (human, UniProt Q96NY8 32-349)
T3 construct: also called Nectin-4; not shown: His tag
T3 sequence (looked up): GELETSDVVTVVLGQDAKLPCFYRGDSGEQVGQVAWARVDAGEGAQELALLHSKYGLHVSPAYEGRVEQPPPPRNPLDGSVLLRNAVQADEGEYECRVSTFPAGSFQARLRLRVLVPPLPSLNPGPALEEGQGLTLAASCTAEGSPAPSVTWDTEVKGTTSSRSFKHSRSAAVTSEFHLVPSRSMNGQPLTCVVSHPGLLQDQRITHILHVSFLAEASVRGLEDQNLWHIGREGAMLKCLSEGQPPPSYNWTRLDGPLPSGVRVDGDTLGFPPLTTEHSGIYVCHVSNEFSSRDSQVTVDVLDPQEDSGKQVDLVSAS

B1: MAB3-IgG4 (antibody, V domains shown)
VH: QLQLQESGPGLVKPSETLSLTCTVSGGSISSTSHYWGWIRQPPGKGLEWIGSIYYSGSTFYNPSLKSRVTISVDTSKNQFSLKLSSVTAADTAVYYCARDANYYGSAWAFDPWGQGTLVTVSS
VL: EIVLTQSPATLSLSPGERATLSCRASQSVSSYLAWYQQKPGQAPRLLIYDASNRATGIPARFSGSGSGTDFTLTISSLEPEDFAVYYCQQHFNLPTFGGGTKVEIKR
B2: MAB19-IgG4 (antibody, V domains shown)
VH: QVQLVQSGAEVKKPGASVKVSCKASGYTFTSHYMGWVRQAPGQGLEWMGVINPSMGATSYAQKFQGRVTMTRDTSTSTVYMELSSLRSEDTAVYYCARLHVSGSYYPAYLDYWGQGTMVTVSS
VL: EIVMTQSPATLSVSPGERATLSCRASQSVSSNLAWYQQKPGQAPRHLIYGASTRATGIPARFSGSGSGTEFTLTISSLQSEDFAVYYCQQYIVFPWTFGGGTKVEIKR
B3: MAB21-IgG4 (antibody, V domains shown)
VH: B2 VH with V50I, A61T, Q65R
VL: B2 VL
B4: MAB20-IgG4 (antibody, V domains shown)
VH: B2 VH with M48V, V50I
VL: B2 VL
B5: MAB18-IgG4 (antibody, V domains shown)
VH: QVQLVQSGAEVKKPGASVKVSCKASGYTFPAYYMHWVRQAPGQGLEWMGIINPSLGLTSYARKFQGRVTMTRDTSTSTVYMELSSLRSEDTAVYYCARGGRTTWIGAFDIWGQGTMVTVSS
VL: EIVMTQSPATLSVSPGERATLSCRASQSVSSNLAWYQQKPGQAPRLLIYGASTRATGIPARFSGSGSGTEFTLTISSLQSEDFAVYYCQQYVVWPPLTFGGGTKVEIKR
B6: MAB17-IgG4 (antibody, V domains shown)
VH: B5 VH with M34I, F108L
VL: B5 VL
B7: MAB15-IgG4 (antibody, V domains shown)
VH: B5 VH with P30R, A31E, L55I
VL: B5 VL
B8: MAB13-IgG4 (antibody, V domains shown)
VH: B5 VH with P30G, A31N, R62Q
VL: B5 VL
B9: MAB16-IgG4 (antibody, V domains shown)
VH: B5 VH with P30R, A31E, L55I, F108L
VL: B5 VL
B10: MAB14-IgG4 (antibody, V domains shown)
VH: B5 VH with R62Q
VL: B5 VL
B11: SEC1 (format not stated) (antibody, V domains shown)
VH: EVQLVESGGGLTQPGKSLKLSCEASGFTFSSFTMHWVRQSPGKGLEWVAFIRSGSGIVFYADAVRGRFTISRDNAKNLLFLQMNDLKSEDTAMYYCARRPLGHNTFDSWGQGTLVTVSS
VL: DIVMTQSPSSLAVSPGEKVTMTCKSSQSLYYSGVKENLLAWYQQKPGQSPKLLIYYASIRFTGVPDRFTGSGSGTDYTLTITSVQAEDMGQYFCQQGINNPLTFGDGTKLEIK

These binders were tested against T1, human TIGIT on the cell surface (assay: cell-based or functional assay).

Row | Binder | Average EC50, IL-2 production, human TIGIT Jurkat/anti-CD3 HT-1080 co-culture assay [nM]
1 | B1 | 0.33
2 | B2 | 0.2
3 | B3 | 0.61
4 | B4 | 0.68
5 | B5 | 0.25
6 | B6 | 0.13
7 | B7 | 0.21
8 | B8 | 1.4
9 | B9 | 1.11
10 | B10 | 0.71
11 | B11 | 8.46

What follows are binders tested against T2, recombinant monomeric human TIGIT-His (assay: MSD-SET solution equilibrium titration, monomeric antigen).
Procedure: (§1) See Estep et al., supra, incorporated by reference in its entirety. Briefly, solution equilibrium titrations (SET) were performed in PBS+0.1% IgG-Free BSA (PBSF) with antigen (TIGIT monomer) held constant at 10-100 pM and incubated with 3- to 5-fold serial dilutions of Fab or mAbs starting at 10 pM-10 nM. Antibodies (20 nM in PBS) were coated onto standard bind MSD-ECL plates overnight at 4° C. or at room temperature for 30 min. Plates were then blocked by BSA for 30 min with shaking at 700 rpm, followed by three washes with wash buffer (PBSF+0.05% Tween 20). SET samples were applied and incubated on the plates for 150s with shaking at 700 rpm followed by one wash. Antigen captured on a plate was detected with 250 ng/mL sulfotag-labeled streptavidin in PBSF by incubation on the plate for 3 min. The plates were washed three times with wash buffer and then read on the MSD Sector Imager 2400 instrument using 1× Read Buffer T with surfactant. The percent free antigen was plotted as a function of titrated antibody in Prism and fit to a quadratic equation to extract the KD. To improve throughput, liquid handling robots were used throughout MSD-SET experiments, including SET sample preparation.

Row | Binder | Kd [nM]
12 | B1 | 0.0081
13 | B3 | 0.08
14 | B4 | 0.03
15 | B6 | 0.041
16 | B7 | 0.21
17 | B8 | 0.4
18 | B9 | 0.07
19 | B10 | 0.38

Each binder was assayed against T4, recombinant monomeric cynomolgus monkey TIGIT-His (cynomolgus monkey) in the same assay as above.
T4 construct: also called Cyno TIGIT His; cTIGIT; not shown: His tag
T4 sequence (chain, as listed by the source limits assumed): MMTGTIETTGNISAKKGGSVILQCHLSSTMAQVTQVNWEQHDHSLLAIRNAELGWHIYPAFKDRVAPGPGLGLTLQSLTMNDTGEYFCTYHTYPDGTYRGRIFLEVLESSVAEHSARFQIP
Procedure: as §1

Row | Binder | Kd [nM]
20 | B1 | 0.035

Each binder was assayed against T1, human TIGIT on the cell surface (assay: flow cytometry, antibody titrated against labeled PVR-Fc binding to human TIGIT Jurkat cells).
Procedure: (§2) Quantitative ligand blocking studies were conducted by using a cell surface TIGIT binding assay.

Row | Binder | IC50 [nM]
21 | B1 | 1.6
22 | B2 | 6.4
23 | B3 | 1
24 | B4 | 2.3
25 | B5 | 1.8
26 | B6 | 2.6
27 | B7 | 2.2
28 | B8 | 2.1
29 | B9 | 2.1
30 | B10 | 2.6

These binders were tested against T1, human TIGIT on the cell surface (assay: flow cytometry, antibody titrated against labeled PVRL2-Fc binding to human TIGIT Jurkat cells).
Procedure: as §2

Row | Binder | IC50 [nM]
31 | B1 | 1.2
32 | B2 | 2
33 | B3 | 0.8
34 | B4 | 1.9
35 | B5 | 1.9
36 | B6 | 1.9
37 | B7 | 1.1
38 | B8 | 1.8
39 | B9 | 1.3
40 | B10 | 1.6

Each binder was assayed against T2, recombinant monomeric human TIGIT-His (assay: BLI (Octet QKe), antibody on AHC sensor, several concentrations of human TIGIT-His, 1:1 global fit, average).
Procedure: A strategy of capturing anti-TIGIT antibodies on sensors following association/dissociation of monomeric TIGIT proteins was used to avoid avidity effects in the assay. The BLI analysis was performed at 29° C. using 1× kinetics buffer (ForteBio) as assay buffer. Anti-human IgG Fc capture (AHC) biosensors (ForteBio) were first presoaked in assay buffer for over five minutes. Anti-TIGIT antibody (5 μg/mL) was captured on the sensor for 300 seconds. Sensors were then dipped in assay buffer for 120 seconds to establish a baseline before measuring binding to each TIGIT protein. […] Dissociation of TIGIT was measured by dipping the sensors into assay buffer for 600, 1200, or 1800 seconds, depending on the experiment (600 seconds was only used for mouse TIGIT-His). Agitation at all steps was 1000 rpm.
Kinetic parameters were generated with Octet® Data Analysis Software Version 8.2.0.7 using reference subtraction, dissociation based inter-step correction, 1-to-1 binding model, and global fit (Rₘₐₓ unlinked by sensor).

Row | Binder | Kd [nM] | koff [s⁻¹] | kon [M⁻¹ s⁻¹]
41 | B3 | 0.36 | 0.0005 | 1.4e+06
42 | B4 | 0.46 | 0.00038 | 890000
43 | B5 | 0.81 | 0.00059 | 750000
44 | B7 | 0.58 | 0.00066 | 1.1e+06
45 | B9 | 1.1 | 0.00035 | 450000

The binders below were run against T2, recombinant monomeric human TIGIT-His (assay: BLI (ForteBio), IgG on AHQ sensor, 100 nM monomeric antigen, 1:1 model).
Procedure: (§3) Quantitative binding of antibodies to recombinant monomeric human, mouse (SEQ ID NO: 3), cynomolgus monkey TIGIT was measured using biolayer interferometry (BLI) with a FORTEBIO®. […] FORTEBIO affinity measurements were performed by loading IgGs on-line onto AHQ sensors. Sensors were equilibrated off-line in assay buffer for 30 min and then monitored on-line for 60 seconds for baseline establishment. Sensors with loaded IgGs were exposed to a single concentration of antigen (100 nM) for 3 minutes. Afterwards they were transferred to assay buffer for 3 minutes for off-rate measurement. Kinetics were analyzed using the 1:1 binding model.

Row | Binder | Kd [nM]
46 | B1 | 0.332
47 | B5 | 0.448
48 | B6 | 0.429
49 | B7 | 0.526
50 | B8 | 1.44
51 | B9 | 0.378
52 | B10 | 1.23

Each binder was assayed against T4, recombinant monomeric cynomolgus monkey … in the same assay as above.
Procedure: as §3

Row | Binder | Kd [nM]
53 | B1 | 0.802
54 | B5 | 72
55 | B6 | 110
56 | B7 | 79.4
57 | B9 | 70.4

What follows are binders tested against T3, human PVRL4-His (assay: BLI, antibody on AHC sensor, human PVRL4-His in solution).
Procedure: The BLI analysis was performed at 30° C. using 1× kinetics buffer as assay buffer. AHC sensors were first presoaked in assay buffer for greater than 5 minutes. Antibody (5 μg/mL) was captured on the sensor for 300 seconds. Sensors were then dipped in assay buffer for 120 seconds to establish a baseline before measuring binding to human PVRL4-His protein. Sensors were then dipped into human PVRL4-His (200 nM in assay buffer) for 200 seconds to measure association. Dissociation of PVRL4 was then measured by dipping sensors into assay buffer for 200 seconds. Results were analyzed using Octet® Data Analysis Software Version 8.2.0.7.

Row | Binder | binding result
58 | B1 | no binding (tested: 200 nM)
59 | B2 | no binding (tested: 200 nM)
60 | B3 | no binding (tested: 200 nM)
61 | B4 | no binding (tested: 200 nM)
62 | B5 | no binding (tested: 200 nM)
63 | B6 | no binding (tested: 200 nM)
64 | B7 | no binding (tested: 200 nM)
65 | B8 | no binding (tested: 200 nM)
66 | B9 | no binding (tested: 200 nM)
67 | B10 | no binding (tested: 200 nM)
